US20160068605A1 (Janssen / Centocor, published 2016)

T1: human CD123 SP1 ECD displayed on pDisplay-transfected cells (human, UniProt P26951 20-305)
T1 construct: ECD anchored on the surface of stably transfected HEK293 cells by the PDGFR transmembrane domain; also called hCD123 SP1 cells; hCD123 cells
T1 sequence: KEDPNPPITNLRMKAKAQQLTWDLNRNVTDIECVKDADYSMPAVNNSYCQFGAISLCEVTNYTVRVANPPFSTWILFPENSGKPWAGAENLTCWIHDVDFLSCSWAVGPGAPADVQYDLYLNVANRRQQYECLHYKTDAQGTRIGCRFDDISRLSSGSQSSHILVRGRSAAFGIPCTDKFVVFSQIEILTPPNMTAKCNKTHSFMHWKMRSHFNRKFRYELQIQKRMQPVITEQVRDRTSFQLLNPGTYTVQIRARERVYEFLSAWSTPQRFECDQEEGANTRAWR

T2: human CD123 SP2 ECD displayed on pDisplay-transfected cells (human, UniProt P26951 101-305)
T2 construct: ECD anchored on the surface of stably transfected HEK293 cells; also called hCD123 SP2 cells; pDisplay CD123SP2
T2 sequence: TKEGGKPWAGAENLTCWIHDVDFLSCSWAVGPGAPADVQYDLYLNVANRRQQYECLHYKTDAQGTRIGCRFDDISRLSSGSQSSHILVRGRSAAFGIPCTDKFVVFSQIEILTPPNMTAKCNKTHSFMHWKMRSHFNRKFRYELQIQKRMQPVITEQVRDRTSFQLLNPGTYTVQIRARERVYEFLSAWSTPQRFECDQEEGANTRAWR

T3: Recombinant human CD123 SP1 ECD-His tag protein (human, UniProt P26951 20-305)
T3 construct: bought from R&D Systems (#301-R3/CF); biotinylated for some assays; also called rhCD123 SP1; huCD123 ECD SP1
T3 sequence: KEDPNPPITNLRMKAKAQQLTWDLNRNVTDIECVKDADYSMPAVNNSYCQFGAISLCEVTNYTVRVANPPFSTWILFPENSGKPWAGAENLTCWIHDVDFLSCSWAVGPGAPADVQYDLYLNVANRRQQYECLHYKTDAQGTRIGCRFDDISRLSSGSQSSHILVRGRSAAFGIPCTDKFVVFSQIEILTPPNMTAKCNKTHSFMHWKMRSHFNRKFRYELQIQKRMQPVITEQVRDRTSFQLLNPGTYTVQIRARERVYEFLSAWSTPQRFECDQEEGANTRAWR

T4: Recombinant human CD123 SP2 ECD protein (human, UniProt P26951 101-303)
T4 construct: also called rhCD123 SP2; CD123 ECD SP2
T4 sequence: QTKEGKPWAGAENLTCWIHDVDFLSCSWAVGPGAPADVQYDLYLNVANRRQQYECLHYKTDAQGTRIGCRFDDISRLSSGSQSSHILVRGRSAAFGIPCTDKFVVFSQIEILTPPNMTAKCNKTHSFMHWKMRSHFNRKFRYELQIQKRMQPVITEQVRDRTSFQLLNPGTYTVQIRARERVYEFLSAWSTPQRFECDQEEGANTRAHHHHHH


What was measured:
[1] = molecular target: T1, human CD123 SP1 ECD displayed on …; assay: MSD-CAT on pDisplay cells
Procedure: (§1) The MSD-CAT was developed in-house as a label-free method to determine affinity using intact cells in a high throughput format. […] Cell lines used were human pDisplay CD123SP1 and pDisplay CD123SP2. […] These samples were prepared in DMEM Glutamax medium containing 0.05% Azide, 1% BSA, 3 mM EDTA. […] After equilibration the plate was centrifuged for 5 minutes ˜1000 rpm and free anti-CD3 detected on the supernatant. […] The assay buffer was removed without washing and 50 uL/well of 0.7 ug/mL of biotinylated antigen in assay buffer were added to MSD plates and incubated overnight (˜16 hours at 4° C.).

[2] = molecular target: T2, human CD123 SP2 ECD displayed on …; assay: MSD-CAT on pDisplay cells
Procedure: as §1

[3] = molecular target: T3, Recombinant human CD123 SP1 ECD-His tag …; assay: SPR Biacore T200, captured antibody
Procedure: (§2) Kinetic studies were performed at 25° C. using a Biacore T200 (Biacore, Inc., now part of GE Healthcare). […] The carboxymethyl groups of dextran were activated with N-Ethyl-N′-(3-Dimethylaminopropyl)carbodiimide (EDC) and N-hydroxysuccinimide (NHS). The anti-Fc antibody was coupled at pH 4.5 in 10 mM sodium acetate. Any remaining reactive sites on the surface were blocked by reaction with ethanolamine. […] 40-70 RU of antibody were captured. […] Association data was collected for 2 min followed by 10 min of dissociation. The surface was regenerated with 30 μL of 100 mM H3PO4 100 μL/min, followed by 50 mM NaOH. The samples for kinetic analysis were prepared in PBS-based buffer (D-PBS containing 3 mM EDTA and 0.005% surfactant P20). Data reported is the difference in SPR signal between the flow cell containing the captured antibody and a reference cell without captured antibody. Additional instrumental contributions to the signal were removed by subtraction of the data from the blank injection from the reference-subtracted signal. Data were analyzed by fitting association and dissociation phases at all concentrations (global fit) with a 1:1 binding model using the BIAevaluation software (BIAcore, Inc.).

[4] = molecular target: T4, Recombinant human CD123 SP2 ECD protein; assay: SPR Biacore T200, captured antibody
Procedure: as §2

[5] = molecular target: T5, cell-surface CD3 epsilon on primary cynomolgus T cells (cynomolgus monkey, UniProt Q95LI5 22-198); assay: flow cytometry competition with labeled CD3B146 on T cells
T5 construct: whole, on cells; also called cynomolgus CD3e; Cyno T-cells
Text: (§3) The format involved competition binding using a fixed concentration of labeled anti-CD3 mAb of known affinity and increasing concentrations of unlabeled test Abs (Ashkenazi A et al. PNAS: 88:10535, 1991.).

[6] = molecular target: T6, cell-surface CD3 epsilon on primary human T cells (human, UniProt P07766 23-207); assay: as above
T6 construct: whole, on cells; part of the CD3/TCR complex on the cells
Text: as §3

T6 sequence (P07766 23-207): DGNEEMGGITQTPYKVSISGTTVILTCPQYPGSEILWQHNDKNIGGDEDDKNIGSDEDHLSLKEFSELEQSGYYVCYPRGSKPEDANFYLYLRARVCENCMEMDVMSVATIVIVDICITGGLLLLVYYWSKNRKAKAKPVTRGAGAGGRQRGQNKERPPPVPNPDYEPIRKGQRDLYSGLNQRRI
T5 sequence (Q95LI5 22-198): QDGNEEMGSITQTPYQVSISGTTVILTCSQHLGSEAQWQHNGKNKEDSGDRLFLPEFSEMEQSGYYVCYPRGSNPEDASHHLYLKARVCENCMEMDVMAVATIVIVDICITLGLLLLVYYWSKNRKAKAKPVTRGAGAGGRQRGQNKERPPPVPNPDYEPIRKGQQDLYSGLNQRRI

Binder	Kd [1] [nM]	Kd [2] [nM]	Kd [3] [nM]	koff [3] [s⁻¹]	kon [3] [M⁻¹ s⁻¹]	Kd [4] [nM]	koff [4] [s⁻¹]	kon [4] [M⁻¹ s⁻¹]	Kd [5] [nM]	Kd [6] [nM]
bispecific antibody Ab 3978 (bispecific antibody, human IgG4 S228P, kappa, lambda, F234A L235A, IgG4-PAA; CD3 arm of CD3B217 (first heavy and light chain), CD123 arm of I3RB217 (I3RB18)) heavy 1: EVQLLESGGGLVQPGGSLRLSCAASGFTFNTYAMNWVRQAPGKGLEWVARIRSKYNNYATYYADSVKGRFTISRDNSKNTLYLQMNSLRAEDTAVYYCVKHGNFGNSYVSWFAYWGQGTLVTVSSASTKGPSVFPLAPCSRSTSESTAALGCLVKDYFPEPVTVSWNSGALTSGVHTFPAVLQSSGLYSLSSVVTVPSSSLGTKTYTCNVDHKPSNTKVDKRVESKYGPPCPPCPAPEAAGGPSVFLFPPKPKDTLMISRTPEVTCVVVDVSQEDPEVQFNWYVDGVEVHNAKTKPREEQFNSTYRVVSVLTVLHQDWLNGKEYKCKVSNKGLPSSIEKTISKAKGQPREPQVYTLPPSQEEMTKNQVSLTCLVKGFYPSDIAVEWESNGQPENNYKTTPPVLDSDGSFLLYSKLTVDKSRWQEGNVFSCSVMHEALHNHYTQKSLSLSLGK light 1: QAVVTQEPSLTVSPGGTVTLTCRSSTGAVTTSNYANWVQQKPGQAPRGLIGGTNKRAPGTPARFSGSLLGGKAALTLSGAQPEDEAEYYCALWYSNLWVFGGGTKLTVLGQPKAAPSVTLFPPSSEELQANKATLVCLISDFYPGAVTVAWKADSSPVKAGVETTTPSKQSNNKYAASSYLSLTPEQWKSHRSYSCQVTHEGSTVEKTVAPTECS heavy 2: not shown light 2: EIVLTQSPGTLSLSPGERATLSCRASQSVSSSYLAWYQQKPGQAPRLLIYGASSRATGIPDRFSGSGSGTDFTLTISRLEPEDFAVYYCQQDYGFPWTFGQGTKVEIKRTVAAPSVFIFPPSDEQLKSGTASVVCLLNNFYPREAKVQWKVDNALQSGNSQESVTEQDSKDSTYSLSSTLTLSKADYEKHKVYACEVTHQGLSSPVTKSFNRGEC	0.153	0.528	1.47	0.00083	564000	0.356	0.0011	3.12e+06	215	241
bispecific antibody Ab 8876 (bispecific antibody, human IgG4 S228P, kappa, lambda, F234A L235A, also called 8876I) heavy 1: EVQLLESGGGLVQPGGSLRLSCAASGFTFNTYAMNWVRQAPGKGLEWVARIRSKYNNYATYYADSVKGRFTISRDNSKNTLYLQMNSLRAEDTAVYYCVKHGNFGNSYVSWFAYWGQGTLVTVSSASTKGPSVFPLAPCSRSTSESTAALGCLVKDYFPEPVTVSWNSGALTSGVHTFPAVLQSSGLYSLSSVVTVPSSSLGTKTYTCNVDHKPSNTKVDKRVESKYGPPCPPCPAPEAAGGPSVFLFPPKPKDTLMISRTPEVTCVVVDVSQEDPEVQFNWYVDGVEVHNAKTKPREEQFNSTYRVVSVLTVLHQDWLNGKEYKCKVSNKGLPSSIEKTISKAKGQPREPQVYTLPPSQEEMTKNQVSLTCLVKGFYPSDIAVEWESNGQPENNYKTTPPVLDSDGSFLLYSKLTVDKSRWQEGNVFSCSVMHEALHNHYTQKSLSLSLGK light 1: QAVVTQEPSLTVSPGGTVTLTCRSSTGAVTTSNYANWVQQKPGQAPRGLIGGTNKRAPGTPARFSGSLLGGKAALTLSGAQPEDEAEYYCALWYSNLWVFGGGTKLTVLGQPKAAPSVTLFPPSSEELQANKATLVCLISDFYPGAVTVAWKADSSPVKAGVETTTPSKQSNNKYAASSYLSLTPEQWKSHRSYSCQVTHEGSTVEKTVAPTECS heavy 2: not shown light 2: not shown	1.29	2.45	14.4	0.0049	343000	1.75	0.005	2.83e+06	110	169
bispecific antibody Ab 4435 (bispecific antibody, human IgG4 S228P, kappa, lambda, F234A L235A) heavy 1: EVQLLESGGGLVQPGGSLRLSCAASGFTFNTYAMNWVRQAPGKGLEWVARIRSKYNNYATYYADSVKGRFTISRDNSKNTLYLQMNSLRAEDTAVYYCVKHGNFGNSYVSWFAYWGQGTLVTVSSASTKGPSVFPLAPCSRSTSESTAALGCLVKDYFPEPVTVSWNSGALTSGVHTFPAVLQSSGLYSLSSVVTVPSSSLGTKTYTCNVDHKPSNTKVDKRVESKYGPPCPPCPAPEAAGGPSVFLFPPKPKDTLMISRTPEVTCVVVDVSQEDPEVQFNWYVDGVEVHNAKTKPREEQFNSTYRVVSVLTVLHQDWLNGKEYKCKVSNKGLPSSIEKTISKAKGQPREPQVYTLPPSQEEMTKNQVSLTCLVKGFYPSDIAVEWESNGQPENNYKTTPPVLDSDGSFLLYSKLTVDKSRWQEGNVFSCSVMHEALHNHYTQKSLSLSLGK light 1: QTVVTQEPSLTVSPGGTVTLTCRSSTGAVTTSNYANWVQQKPGQAPRGLIGGTNKRAPGTPARFSGSLLGGKAALTLSGVQPEDEAEYYCALWYSNLWVFGGGTKLTVLGQPKAAPSVTLFPPSSEELQANKATLVCLISDFYPGAVTVAWKADSSPVKAGVETTTPSKQSNNKYAASSYLSLTPEQWKSHRSYSCQVTHEGSTVEKTVAPTECS heavy 2: not shown light 2: not shown	1.53	3.7	14.3	0.0048	337000	1.74	0.005	2.88e+06	139	174
bispecific antibody Ab 7955 (bispecific antibody, human IgG4 S228P, kappa, lambda, F234A L235A, IgG4-PAA; CD3 arm of CD3B218, CD123 arm of I3RB217 (I3RB18)) heavy 1: EVQLLESGGGLVQPGGSLRLSCAASGFTFNTYAMNWVRQAPGKGLEWVARIRSKYNNYATYYADSVKGRFTISRDNSKNTLYLQMNSLRAEDTAVYYCVKHGNFGNSYVSWFAYWGQGTLVTVSSASTKGPSVFPLAPCSRSTSESTAALGCLVKDYFPEPVTVSWNSGALTSGVHTFPAVLQSSGLYSLSSVVTVPSSSLGTKTYTCNVDHKPSNTKVDKRVESKYGPPCPPCPAPEAAGGPSVFLFPPKPKDTLMISRTPEVTCVVVDVSQEDPEVQFNWYVDGVEVHNAKTKPREEQFNSTYRVVSVLTVLHQDWLNGKEYKCKVSNKGLPSSIEKTISKAKGQPREPQVYTLPPSQEEMTKNQVSLTCLVKGFYPSDIAVEWESNGQPENNYKTTPPVLDSDGSFLLYSKLTVDKSRWQEGNVFSCSVMHEALHNHYTQKSLSLSLGK light 1: QTVVTQEPSLTVSPGGTVTLTCRSSTGAVTTSNYANWVQQKPGQAPRGLIGGTNKRAPGTPARFSGSLLGGKAALTLSGVQPEDEAEYYCALWYSNLWVFGGGTKLTVLGQPKAAPSVTLFPPSSEELQANKATLVCLISDFYPGAVTVAWKADSSPVKAGVETTTPSKQSNNKYAASSYLSLTPEQWKSHRSYSCQVTHEGSTVEKTVAPTECS heavy 2: not shown light 2: EIVLTQSPGTLSLSPGERATLSCRASQSVSSSYLAWYQQKPGQAPRLLIYGASSRATGIPDRFSGSGSGTDFTLTISRLEPEDFAVYYCQQDYGFPWTFGQGTKVEIKRTVAAPSVFIFPPSDEQLKSGTASVVCLLNNFYPREAKVQWKVDNALQSGNSQESVTEQDSKDSTYSLSSTLTLSKADYEKHKVYACEVTHQGLSSPVTKSFNRGEC	0.136	0.436	1.49	0.00084	562000	0.344	0.0011	3.33e+06	169	210
